Test results from article PMC3650080, “Structural Insights into the UbiD Protein Family from the Crystal Structure of PA0254 from Pseudomonas aeruginosa” (PLoS ONE, 2013).

B1: UbiD from P. aeruginosa (PA5237) (enzyme, Pseudomonas aeruginosa PAO1, UniProt Q9HTV3 1-488, looked up)
chain: MTFKDLRDFIAQLEQRGALKRIQVPISPVLEMTEVCDRTLRAKGPALLFEKPTGFDMPVLGNLFGTPERVALGMGAEDVGALREIGKLLAQLKEPEPPKGLKDAWAKLPMYRKVLSMAPKVLKDAPCQEVVEEGEDVDLGRLPVQTCWPGDVGPLITWGLTVTRGPNKERQNLGIYRQQVIGRNKVIMRWLSHRGGALDYREWCQKHPGQPYPVAVALGADPATILGAVTPVPDTLSEYAFAGLLRGHRTELVKCRGSDLQVPASAEIVLEGVIHPGEMADEGPYGDHTGYYNEVDRFPVFTVERVTRRQKPIYHSTYTGRPPDEPAILGVALNEVFVPILQKQFPEIVDFYLPPEGCSYRMAVVTMKKQYPGHAKRVMLGVWSFLRQFMYTKFVIVTDDDIDARDWNDVIWAITTRMDPKRDTVMIDNTPIDYLDFASPVSGLGSKMGLDATHKWPGETSREWGRAIVKDEAVTRRIDALWSSLGID
notes: PA5237, UbiD (3-polyprenyl-4-hydroxybenzoate decarboxylase) of Pseudomonas aeruginosa PAO1; construct not described; also called UbiD1; bona fide UbiD
B2: PA0254 from Pseudomonas aeruginosa (UbiD-like protein) (enzyme, Pseudomonas aeruginosa PAO1, UniProt Q9I6N5 1-496, looked up)
chain: MNRSALDFRHFVDHLRRQGDLVDVHTEVDANLEIGAITRRVYERRAPAPLFHNIRDSLPGARVLGAPAGLRADRARAHSRLALHFGLPEHSGPRDIVAMLRAAMRAEPIAPRRLERGPVQENVWLGEQVDLTRFPVPLLHEQDGGRYFGTYGFHVVQTPDGSWDSWSVGRLMLVDRNTLAGPTIPTQHIGIIREQWRRLGKPTPWAMALGAPPAALAAAGMPLPEGVSEAGYVGALVGEPVEVVRTQTNGLWVPANTEIVLEGEISLDETALEGPMGEYHGYSFPIGKPQPLFHVHALSFRDQPILPICVAGTPPEENHTIWGTMISAQLLDVAQNAGLPVDMVWCSYEAATCWAVLSIDVQRLAALGTDAAAFAARVAETVFGSHAGHLVPKLILVGNDIDVTEIDQVVWALATRAHPLHDHFAFPQIRDFPMVPYLDAEDKARGSGGRLVINCLYPEQFAGQMRAATASFRHAYPTALRRRVEERWSDYGFGDA
notes: PA0254, UbiD-like putative 3-polyprenyl-4-hydroxybenzoate decarboxylase of Pseudomonas aeruginosa PAO1; full-length gene (residues 1-496 modelled); calculated mass of His6-PA0254 57053 Da per subunit; The TEV-cleavable His6 tag was not removed (incomplete cleavage); tag residues -7 to 0 are partly seen in the trigonal crystal; A SeMet-substituted form was used for phasing only; also called UbiD2; …

Assays:
[1] = target: the molecule itself; test: SEC; superdex-200 column (GE-Healthcare) calibrated with Ribonuclease-A, Chymotrypsinogen-A, Ovalbumin, Albumin, Catalase and Ferretin; absorbance at 280 nm
[2] = target: the molecule itself; test: crystal structure; two crystal forms of His6-PA0254: P2(1) (1 M (NH4)2SO4, 0.1 M Bis-Tris pH 5.5, 1% PEG 3350; 2.3 Å, four subunits in the asymmetric unit) and P3(2)21 (0.1 M Hepes pH 7.5, 0.2 M MgCl2, 10% PEG 400; 1.95 Å, three subunits); dimer told from crystal packing and PISA

Protein | stoichiometry N [1] | stoichiometry N [2]
B1 | 6 | –
B2 | – | 2
